# Data published in EP4471049A1 (Zealand Pharma A/S, priority 2023, dated 2024).
# *1 amine or outer side, *2 acyl side, *3 side chain or, on linkers, in order; H or OH if unused. Bridges are numbered along the chain shown (N, C = ends). [ ]: non-standard residue; d: D form. The star is where a group is joined. 4‑Aminomethyl‑phenylacetyl = 4-aminomethyl-phenylacetyl unit, its amine closes the lactam, O=C(Cc1ccc(CN[*:1])cc1)[*:2]; αMeAla(3-pyridyl) = C[C@](N)(Cc1cccnc1)C(=O)O; NH(4-(3-pyridyl)butyl) = c1cncc(CCCCN*)c1; 2Nal = N[C@@H](Cc1ccc2ccccc2c1)C(=O)O; AEF = NCCOc1ccc(C[C@H](N)C(=O)O)cc1; NMe3Pal = CN[C@@H](Cc1cccnc1)C(=O)O; 3Pal = N[C@@H](Cc1cccnc1)C(=O)O; d3Pal = N[C@H](Cc1cccnc1)C(=O)O; αMeL = CC(C)C[C@](C)(N)C(=O)O; β3hL = CC(C)C[C@H](N)CC(=O)O; Dab = NCC[C@H](N)C(=O)O; Sar = CNCC(=O)O
# T1: human IL-23R endogenously expressed on DB cells (human, UniProt Q5VWK5 24-629)
# T1 sequence (looked up): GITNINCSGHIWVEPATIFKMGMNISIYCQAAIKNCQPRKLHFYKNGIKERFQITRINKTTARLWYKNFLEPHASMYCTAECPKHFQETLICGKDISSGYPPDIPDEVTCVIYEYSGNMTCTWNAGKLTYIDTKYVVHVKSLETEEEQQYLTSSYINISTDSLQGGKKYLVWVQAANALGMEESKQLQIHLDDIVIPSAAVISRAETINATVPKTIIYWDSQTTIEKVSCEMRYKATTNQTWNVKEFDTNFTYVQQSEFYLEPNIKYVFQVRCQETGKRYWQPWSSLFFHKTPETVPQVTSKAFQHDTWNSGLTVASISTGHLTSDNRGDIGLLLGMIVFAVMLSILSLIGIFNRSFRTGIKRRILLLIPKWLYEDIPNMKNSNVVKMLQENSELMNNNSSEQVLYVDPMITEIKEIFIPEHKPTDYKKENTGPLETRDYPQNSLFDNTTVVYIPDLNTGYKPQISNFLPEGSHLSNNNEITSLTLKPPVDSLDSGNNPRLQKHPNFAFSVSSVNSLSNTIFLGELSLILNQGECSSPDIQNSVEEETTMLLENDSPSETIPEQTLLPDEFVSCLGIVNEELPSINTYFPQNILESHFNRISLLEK
# T2: Nluc-IL23R fusion protein (human, UniProt Q5VWK5 22-629)
# T2 construct: range 22-629; expressed with a secretion signal in HEK293 cells; used as crude membrane preparation; also called hIL-23R; human IL-23R; not shown: Nanoluc protein from the expression plasmid N1371 (Promega), N-terminal of IL-23R
# T2 sequence (looked up): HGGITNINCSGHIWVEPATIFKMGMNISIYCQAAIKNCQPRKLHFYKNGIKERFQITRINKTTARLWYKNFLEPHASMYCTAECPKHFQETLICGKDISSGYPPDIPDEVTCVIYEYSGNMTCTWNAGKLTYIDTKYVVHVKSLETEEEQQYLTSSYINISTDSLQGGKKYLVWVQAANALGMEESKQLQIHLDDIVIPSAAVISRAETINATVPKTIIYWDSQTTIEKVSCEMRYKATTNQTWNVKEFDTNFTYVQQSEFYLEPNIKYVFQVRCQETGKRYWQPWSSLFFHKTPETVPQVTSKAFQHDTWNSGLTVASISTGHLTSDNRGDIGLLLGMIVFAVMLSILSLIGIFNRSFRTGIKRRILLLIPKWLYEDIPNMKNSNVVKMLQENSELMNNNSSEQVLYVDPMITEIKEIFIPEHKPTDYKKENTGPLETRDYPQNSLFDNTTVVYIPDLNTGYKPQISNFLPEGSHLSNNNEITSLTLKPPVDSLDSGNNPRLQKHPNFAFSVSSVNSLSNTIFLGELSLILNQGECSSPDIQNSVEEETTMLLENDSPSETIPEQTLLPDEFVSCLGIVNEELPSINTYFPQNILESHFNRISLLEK
# B1: Compound 13 (peptide)
# peptide: [4‑Aminomethyl‑phenylacetyl]SEWQ[Dab][AEF][2Nal][αMeL]E[Dab][dH]-NH2
# modifications: lactam N-10, 3-6
# SMILES: CC(C)C[C@]1(C)NC(=O)[C@H](Cc2ccc3ccccc3c2)NC(=O)[C@H](Cc2ccc(OCCN)cc2)NC(=O)[C@@H]2CCNC(=O)CC[C@H](NC(=O)[C@H](CO)NC(=O)Cc3ccc(cc3)CNC(=O)CC[C@@H](C(=O)N[C@@H](CCN)C(=O)N[C@H](Cc3c[nH]cn3)C(N)=O)NC1=O)C(=O)N[C@@H](Cc1c[nH]c3ccccc13)C(=O)N[C@@H](CCC(N)=O)C(=O)N2
# B2: Compound 3 (peptide)
# peptide: [4‑Aminomethyl‑phenylacetyl]SEWQ[Dab][AEF][2Nal][αMeL]E[Dab][αMeAla(3-pyridyl)]-NH2
# modifications: lactam N-10, 3-6
# SMILES: CC(C)C[C@]1(C)NC(=O)[C@H](Cc2ccc3ccccc3c2)NC(=O)[C@H](Cc2ccc(OCCN)cc2)NC(=O)[C@@H]2CCNC(=O)CC[C@H](NC(=O)[C@H](CO)NC(=O)Cc3ccc(cc3)CNC(=O)CC[C@@H](C(=O)N[C@@H](CCN)C(=O)N[C@@](C)(Cc3cccnc3)C(N)=O)NC1=O)C(=O)N[C@@H](Cc1c[nH]c3ccccc13)C(=O)N[C@@H](CCC(N)=O)C(=O)N2
# B3: Compound 11 (peptide)
# peptide: [4‑Aminomethyl‑phenylacetyl]SEWQ[Dab][AEF][2Nal][αMeL]E[Dab][3Pal][β3hL]-NH2
# modifications: lactam N-10, 3-6
# SMILES: CC(C)C[C@@H](CC(N)=O)NC(=O)[C@H](Cc1cccnc1)NC(=O)[C@H](CCN)NC(=O)[C@@H]1CCC(=O)NCc2ccc(cc2)CC(=O)N[C@@H](CO)C(=O)N[C@H]2CCC(=O)NCC[C@H](NC(=O)[C@H](CCC(N)=O)NC(=O)[C@H](Cc3c[nH]c4ccccc34)NC2=O)C(=O)N[C@@H](Cc2ccc(OCCN)cc2)C(=O)N[C@@H](Cc2ccc3ccccc3c2)C(=O)N[C@@](C)(CC(C)C)C(=O)N1
# B4: Compound 9 (peptide)
# peptide: [4‑Aminomethyl‑phenylacetyl]SEWQ[Dab][AEF][2Nal][αMeL]E[Dab][3Pal][Sar]-NH2
# modifications: lactam N-10, 3-6
# SMILES: CC(C)C[C@]1(C)NC(=O)[C@H](Cc2ccc3ccccc3c2)NC(=O)[C@H](Cc2ccc(OCCN)cc2)NC(=O)[C@@H]2CCNC(=O)CC[C@H](NC(=O)[C@H](CO)NC(=O)Cc3ccc(cc3)CNC(=O)CC[C@@H](C(=O)N[C@@H](CCN)C(=O)N[C@@H](Cc3cccnc3)C(=O)N(C)CC(N)=O)NC1=O)C(=O)N[C@@H](Cc1c[nH]c3ccccc13)C(=O)N[C@@H](CCC(N)=O)C(=O)N2
# B5: Compound 10 (peptide)
# peptide: [4‑Aminomethyl‑phenylacetyl]SEWQ[Dab][AEF][2Nal][αMeL]E[Dab][3Pal][dH]-NH2
# modifications: lactam N-10, 3-6
# SMILES: CC(C)C[C@]1(C)NC(=O)[C@H](Cc2ccc3ccccc3c2)NC(=O)[C@H](Cc2ccc(OCCN)cc2)NC(=O)[C@@H]2CCNC(=O)CC[C@H](NC(=O)[C@H](CO)NC(=O)Cc3ccc(cc3)CNC(=O)CC[C@@H](C(=O)N[C@@H](CCN)C(=O)N[C@@H](Cc3cccnc3)C(=O)N[C@H](Cc3c[nH]cn3)C(N)=O)NC1=O)C(=O)N[C@@H](Cc1c[nH]c3ccccc13)C(=O)N[C@@H](CCC(N)=O)C(=O)N2
# B6: I1 (isomer 3) (peptide)
# peptide: H-GCTCWECWWLCS-NH2
# modifications: bridge 4-7, 2-11; not fully specified (bridges)
# notes: compound from Heinis et al., 2020, synthesised for comparison
# B7: Ref 80 (peptide)
# peptide: [4‑Aminomethyl‑phenylacetyl]SCWQC[AEF][2Nal][αMeL]E[dR]-NH2
# modifications: lactam N-10; bridge 3-6; not fully specified (bridges); printed as [4-Aminomethyl-phenylacetyl](1c)*SC(2a)WQC(2a)[Y(2-aminoethoxy)][2-Nal][2-Me-Leu]E(1c)[{d}R]-[NH2]
# notes: Y = Y(2-aminoethoxy), R = D-Arg
# B8: Compound C (peptide)
# peptide: XQTWQCYWXENG
# modifications: [Ac]-[Abu](16i)QTWQC(16i)[Y(2-aminoethoxy)]W[2-Me-Lys]ENG-[NH2]; (16i) [2,7] thioether bridge (cystathionine); N-terminal acetyl, C-terminal amide
# notes: Y = Y(2-aminoethoxy)
# Biological target: T1, human IL-23R endogenously expressed on …
# Test: cell-based or functional assay
row,IC50 (pSTAT3) [nM],Binder
1,2.1,"[4‑Aminomethyl‑phenylacetyl]SEWQ[Dab][AEF][2Nal][αMeL]E[Dab][d3Pal]-NH2 (lactam N-10, 3-6) [Compound 5]"
2,6.8,B1

# Biological target: T1, human IL-23R endogenously expressed on …
# Test: cell-based or functional assay
# Remark: another data set of the same source
row,IC50 (pSTAT3),Binder
1,1.7 nM,B2
2,53 pM,"[4‑Aminomethyl‑phenylacetyl]SEWQ[Dab][AEF][2Nal][αMeL]E[Dab][3Pal]-NHMe (lactam N-10, 3-6) [Compound 8]"
3,6.5 nM,"[4‑Aminomethyl‑phenylacetyl]SEWQ[Dab][AEF][2Nal][αMeL]E[Dab][NMe3Pal]-NH2 (lactam N-10, 3-6) [Compound 4]"

# Biological target: T1, human IL-23R endogenously expressed on …
# Test: cell-based or functional assay
# Remark: another data set of the same source
row,IC50 (pSTAT3),Binder
1,0.68 nM,B3
2,25 pM,B4
3,38 pM,B5

# Biological target: T1, human IL-23R endogenously expressed on …
# Test: cell-based or functional assay
# Remark: another data set of the same source
row,IC50 (pSTAT3) [nM],Binder
1,3.2,"[4‑Aminomethyl‑phenylacetyl]SEWQ[Dab][AEF][2Nal][αMeL]E[Dab]-{NH(4-(3-pyridyl)butyl)} (lactam N-10, 3-6) [Compound 6]"

# Biological target: T1, human IL-23R endogenously expressed on …
# Test: cell-based or functional assay
# Remark: another data set of the same source
hIL-23 (pSTAT3) antagonist % inhibition [%],hIL-23 (pSTAT3) antagonist IC50,Binder
83,–,B6
98,1.7 nM,B2
95,2.1 nM,"[4‑Aminomethyl‑phenylacetyl]SEWQ[Dab][AEF][2Nal][αMeL]E[Dab][d3Pal]-NH2 (lactam N-10, 3-6) [Compound 5]"
98,0.68 nM,B3
99,3.2 nM,"[4‑Aminomethyl‑phenylacetyl]SEWQ[Dab][AEF][2Nal][αMeL]E[Dab]-{NH(4-(3-pyridyl)butyl)} (lactam N-10, 3-6) [Compound 6]"
101,53 pM,"[4‑Aminomethyl‑phenylacetyl]SEWQ[Dab][AEF][2Nal][αMeL]E[Dab][3Pal]-NHMe (lactam N-10, 3-6) [Compound 8]"
99,6.8 nM,B1
97,11 nM,B7
97,25 pM,B4
99,38 pM,B5
99,13 nM,B8
100,6.5 nM,"[4‑Aminomethyl‑phenylacetyl]SEWQ[Dab][AEF][2Nal][αMeL]E[Dab][NMe3Pal]-NH2 (lactam N-10, 3-6) [Compound 4]"

# Biological target: T2, Nluc-IL23R fusion protein
# Test: BRET competition vs TAMRA-labelled peptide, Nluc-IL23R membranes
% displacement (hIL-23R binding) [%],IC50 [nM],Binder
103,0.024,B3
100,–,B4
91,–,B5

# Biological target: T2, Nluc-IL23R fusion protein
# Test: as above
# Remark: another data set of the same source
% displacement (hIL-23R binding) [%],IC50 [nM],Binder
99,–,B2
99,–,"[4‑Aminomethyl‑phenylacetyl]SEWQ[Dab][AEF][2Nal][αMeL]E[Dab][d3Pal]-NH2 (lactam N-10, 3-6) [Compound 5]"
103,0.037,"[4‑Aminomethyl‑phenylacetyl]SEWQ[Dab][AEF][2Nal][αMeL]E[Dab]-{NH(4-(3-pyridyl)butyl)} (lactam N-10, 3-6) [Compound 6]"
103,–,"[4‑Aminomethyl‑phenylacetyl]SEWQ[Dab][AEF][2Nal][αMeL]E[Dab][3Pal]-NHMe (lactam N-10, 3-6) [Compound 8]"
100,–,B1
111,0.17,"[4‑Aminomethyl‑phenylacetyl]SEWQ[Dab][AEF][2Nal][αMeL]E[Dab][NMe3Pal]-NH2 (lactam N-10, 3-6) [Compound 4]"

# Biological target: T2, Nluc-IL23R fusion protein
# Test: Ki from BRET competition (Cheng-Prusoff), Nluc-IL23R membranes
row,Ki [nM],Binder
1,104,B6
2,0.15,B7
3,2.11,B8

# Biological target: T2, Nluc-IL23R fusion protein
# Test: BRET competition vs TAMRA-labelled peptide, Nluc-IL23R membranes
# Remark: another data set of the same source
row,IC50 [nM],Binder
1,130,B6
2,0.18,B7
3,2.6,B8

# Biological target: T2, Nluc-IL23R fusion protein
# Test: as above
# Remark: another data set of the same source
% displacement (hIL-23R binding) [%],IC50 [nM],Binder
105,130,B6
98,0.18,B7
102,2.6,B8
